Data on one protein can be found in article PMC8273888.

The Km is the concentration of substrate that gives half-maximal velocity. For orientation: kcat means the number of substrate molecules converted per active site and unit of time at saturation. As a reminder, the kcat/Km is the turnover number divided by the Michaelis constant.

Common to all, as to assay: Kinetic parameters of hydrolysis of cephalosporin conjugates
Type in all cases: biochemical
Settings in all cases: other: compound as substrate of IMP-28; pH 7.2; 25.0 °C

Substrate in data set [1]: [H][C@]12SCC(CS[C@H](Cc3ccccc3)C(=O)O)=C(C(=O)O)N1C(=O)[C@H]2NC(=O)Cc1ccccc1
Substrate in data set [2]: [H][C@]12SCC(CSC(C(=O)O)c3ccccc3)=C(C(=O)O)N1C(=O)[C@H]2NC(=O)Cc1ccccc1
Substrate in data set [3]: [H][C@]12SCC(CSCc3ccccc3)=C(C(=O)O)N1C(=O)[C@H]2NC(=O)Cc1ccccc1
Substrate in data set [4]: [H][C@]12SCC(CS[C@@H](Cc3ccccc3)C(=O)O)=C(C(=O)O)N1C(=O)[C@H]2NC(=O)Cc1ccccc1
Substrate in data set [5]: [H][C@]12SCC(CSCCc3ccccc3)=C(C(=O)O)N1C(=O)[C@H]2NC(=O)Cc1ccccc1

B1: IMP-28 (Klebsiella oxytoca) (protein)
chain: ESLPDLKIERLDEGVYVHTSFEEVNGWGVVPKHGLVVLVNTEAYLIDTPFTAKDTEKLVTWFVGRGYKIKGSISSHFHSDSTGGIEWLNSQSIPTYASELTNELLKKDGKVQAKNSFGGVSYWLVKNKIEVFYPGPGHTPDNVVVWLPENRVLFGGCFVKPYGLGNLGDANLEAWPKSAKLLMSKYGKAKLVVPSHSEVGDASLLKRTLEHAVKGLNESKKPSKPSN
For B1, the Km in data set [1] was 249 ± 7 µM; in data set [2], 129 ± 13 µM; in data set [3], 20.5 ± 4 µM; in data set [4], 175 ± 19 µM; in data set [5], 83.3 ± 16 µM. Also, the turnover number (kcat) in data set [1] worked out at 2.83 s⁻¹; in data set [2] it was 0.386 s⁻¹; in data set [3], 10.8 s⁻¹; in data set [4], 41 s⁻¹; in data set [5], 6.12 s⁻¹. The kcat/Km in data set [1] is 11000 M⁻¹ s⁻¹; in data set [2], 3000 M⁻¹ s⁻¹; in data set [3] it was 529000 M⁻¹ s⁻¹; in data set [4], 234000 M⁻¹ s⁻¹; in data set [5] it was 73000 M⁻¹ s⁻¹.
